US20230242640A1 (OSE IMMUNOTHERAPEUTICS, published 2023)

Tests used:
protein SIRPb-His = molecular target: T1, protein SIRPb-His (human, UniProt Q5TFQ8 30-371); experiment: ELISA on coated SIRPb-His
T1 construct: The methods give no supplier for SIRPb-His; also called hSIRPb-his
Description: FIG. 2. Binding on SIRPg, SIRPa and SIRPb ELISA assay (protein SIRPa/b/g-His coated and anti-human peroxidase detection). Binding analysis of antibodies A1, A5 and A8, and prior art antibody Kwar23.

[1] = molecular target: T2, recombinant hSIRPg-His (Sino Biologicals reference 11828-H08H) (human, UniProt Q9P1W8 29-360); experiment: ELISA on coated SIRPg-His
T2 construct: Bought protein; also called protein SIRPg-His; SIRP-gamma
T2 sequence (Q9P1W8 29-360): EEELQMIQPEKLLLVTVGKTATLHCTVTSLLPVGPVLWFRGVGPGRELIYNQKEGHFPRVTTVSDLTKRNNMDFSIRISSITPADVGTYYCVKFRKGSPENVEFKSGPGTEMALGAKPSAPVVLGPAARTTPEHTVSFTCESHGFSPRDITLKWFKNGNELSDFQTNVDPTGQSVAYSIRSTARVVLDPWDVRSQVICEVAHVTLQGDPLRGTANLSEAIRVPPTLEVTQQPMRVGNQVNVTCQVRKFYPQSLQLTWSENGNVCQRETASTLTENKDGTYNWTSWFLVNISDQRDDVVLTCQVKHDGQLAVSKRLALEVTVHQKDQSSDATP
Protocol: For activity ELISA assay, recombinant hSIRPg (Sino Biologicals, Beijing, China; reference 11828-H08H) or hSIRPa (Sino Biologicals, Beijing, China; reference 11612-H08H) was immobilized on plastic at 1 µg/ml (hSIRPg) or 0.5 µg/ml (hSIRPa) in carbonate buffer (pH9.2) and purified antibody were added to measure binding.

T1 sequence (Q5TFQ8 30-371): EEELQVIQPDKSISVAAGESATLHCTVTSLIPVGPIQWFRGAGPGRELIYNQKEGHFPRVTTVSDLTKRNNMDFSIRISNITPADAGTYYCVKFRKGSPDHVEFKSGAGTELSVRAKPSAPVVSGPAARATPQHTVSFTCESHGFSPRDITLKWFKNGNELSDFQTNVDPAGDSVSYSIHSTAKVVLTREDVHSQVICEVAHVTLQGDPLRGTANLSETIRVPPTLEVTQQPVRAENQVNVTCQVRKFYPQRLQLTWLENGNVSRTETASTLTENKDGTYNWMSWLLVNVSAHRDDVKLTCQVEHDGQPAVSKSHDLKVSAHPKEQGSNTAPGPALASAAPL

binding result (protein SIRPb-His) | binding result [1] | Binder
no binding | binds | anti-SIRPg antibody A1 (antibody, human IgG4 S228P, kappa, V domains shown, human IgG4 S228P, kappa constant; also called VHA1-hFcG4 + VL-CLkappa) VH: EVQLVESGGGVVRPGGSLRLSCAASGFTFDDYGMSWVRQAPGKGLEWVSGINWNGGSTGYADSVKGRFTISRDNAKNSLYLQMNSLRAEDTAVYYCARWIAKVWGQGTLVTVSR VL: SSELTQDPAVSVALGQTVRITCQGDSLRSYYASWYQQKPGQAPVLVIYGKNNRPSGIPDRFSGSSSGNTASLTITGAQAEDEADYYCNSRDSSGNHVVFGGGTKLTVLR
no binding | binds | anti-SIRPg antibody A8 (antibody, human IgG4 S228P, kappa, V domains shown, human IgG4 S228P, kappa constant; also called VHA8-hFcG4 + VL-CLkappa) VH: not shown VL: SSELTQDPAVSVALGQTVRITCQGDSLRSYYASWYQQKPGQAPVLVIYGKNNRPSGIPDRFSGSSSGNTASLTITGAQAEDEADYYCNSRDSSGNHVVFGGGTKLTVLR
no binding | binds | anti-SIRPg antibody A5 (antibody, human IgG4 S228P, kappa, V domains shown, human IgG4 S228P, kappa constant; also called VHA5-hFcG4 + VL-CLkappa) VH: EVQLVESGGGVVRPGGSLRLSCAASGFTFDDYGMSWVRQAPGKGLEWVSGINWNGGSTGYADSVKGRFTISRDNAKNSLYLQMNSLRAEDTAVYYCARQMVKLWGQGTLVTVSR VL: SSELTQDPAVSVALGQTVRITCQGDSLRSYYASWYQQKPGQAPVLVIYGKNNRPSGIPDRFSGSSSGNTASLTITGAQAEDEADYYCNSRDSSGNHVVFGGGTKLTVLR
